From US20130004947A1, “LUCIFERASE-LINKED ANALYSIS OF DNA-METHYLTRANSFERASE, PROTEIN METHYLTRANSFERASE AND S-ADENOSYLHOMOCYSTEINE AND USES THEREOF” (priority 2010, published 2013)
“And” between values parts separate entries of the source, which are not always exact repeats. Equal values may be shown once. Read-outs that look alike come from different tables or passages of the source.

What was measured:
Type in all cases: biochemical
AdoMet and poly(dIdC) [1] = assay: continuous luciferase-linked AdoHcy assay of DNMT kinetics; conditions: for activity of catalytic domain alone (initial reaction rates): without DNMT3L, even at high substrate and enzyme concentrations
Method: AdoHcy to ATP Conversion Buffer. The 2×AdoHcy to ATP conversion buffer was prepared as previously described with minor modifications (17). In brief, 100 mL of buffer contained 100 mM Tris-acetate pH 7.7, 2 mM PEP, 2 mM sodium pyrophosphate, 2 mM PRPP, 15 mM (NH4)2SO4, 15 mM (NH4)2MoO4, and phosphatase inhibitors (Roche PhosSTOP, 10 tablets). A 4:1 cellulose:charcoal mixture was suspended in water and packed into a disposable mini-column to a bed volume of 1.5 mL, through which a 10 mL aliquot of the previously prepared buffer was passed at 2 mL/min to remove traces of adenine, AMP, and ATP. Treated buffer was filtered (0.2 μm) and stored in 1 mL aliquots at −80° C. Immediately prior to use, the 2× conversion buffer was completed by additions to give final concentrations of 10 mM MgSO4, 6 U APRTase, 18 U PPDK, and 250 nM MTAN and an increase in volume of 14 μL.
DNMT Kinetics using Continuous Luciferase Assay. Continuous assay buffer (2×) was prepared by adding 200 μl luciferin/luciferase (ATPlite) to 1 mL of the AdoHcy to ATP conversion buffer and warmed to room temperature. To 25 μL of this mixture was added AdoMet and the DNA substrate in DNMT assay buffer (25 mM HEPES pH 7.6, 50 mM KCl, 5% glycerol, 0.1% DTT) in a 96-well non-binding surface microplate. The mixture was incubated at room temperature for 3 min to permit any contaminating adenine, AMP, ATP or 5′-methylthioadenosine (MTA) to be converted to a stable background light signal as measured in the kinetic acquisition mode of the luminometer for 3 min. DNMT was added to give a final volume of 50 μL. After 3 min, the luminescent signal was measured for the following 3 min. […] Initial rates were calculated by subtracting the background rate from that obtained after DNMT addition. Initial rates were fitted to the Morrison equation for tight binding substrates with the exception of data obtained while using M.SssI CpG methyltransferase which were fit to the Michaelis-Menten equation. The Morrison equation was used as high enzyme concentrations were necessary and it could no longer be assumed that free substrate concentration was equal to total substrate concentration. The kinetic parameters Km and Vmax were obtained from these fits after converting the luminescent rate (RLU/s) to an enzymatic rate (pmol AdoHcy/h) using the AdoHcy standard curve. The AdoHcy standard curve was constructed by mixing 25 μL of DNMT assay buffer containing varied concentrations of AdoHcy with 25 μL of continuous assay buffer, incubating for several minutes, and then measuring the luminescence of each sample in the discontinuous acquisition mode of the luminometer. Values were background corrected using a mixture containing no AdoHcy.

[2] = test system: [methyl-3H]AdoMet and poly(dIdC); assay: radiometric filter paper assay of DNMT1 rate; conditions: 258 nM DNMT1, 672 nM [methyl-3H]AdoMet
Method: DNMT1 Rate Measurement using Radiometric Assay. The same two reactions were prepared as above for the discontinuous luciferase assay with the exception that 672 nM S-adenosyl-1-[methyl-^3H]methionine was used in place of non-radioactive AdoMet. 15 μL aliquots were removed from each reaction in triplicate at 2 min intervals from 2 to 8 min and spotted on 2.3 cm diameter Whatman DE81 filter paper circles which were allowed to dry for 30 min. The circles were washed with 0.2 M NH4HCO3 (4×2 mL), water (4×2 mL), and absolute ethanol (1×2 mL); each wash lasted 5 min before decanting the liquid. Circles were then dried for 1 h, then placed in scintillation vials and covered with 10 mL Betaplate Scint scintillation fluid. Radioactivity was measured on a Tricarb scintillation counter and background was corrected with a no-enzyme control. A conversion factor of 12 CPM/fmol was used.
Parallel reactions were performed with 672 nM [methyl-^3H]AdoMet to compare the initial rates from the luciferase assay with those obtained from the radiometric filter paper assay (4, 5). Reactions were limited to approximately 700 nM AdoMet because of the concentration of the [methyl/-^3H]AdoMet stock solution. The luciferase-linked assays were performed at the same AdoMet concentration. […] The dried circles were analyzed for radioactivity in a scintillation counter. […]

AdoMet and poly(dIdC) [3] = assay: discontinuous luciferase-linked AdoHcy assay of DNMT1 rate; conditions: 258 nM DNMT1, 682 nM AdoMet
Method: DNMT1 Rate Measurement using Discontinuous Luciferase Assay. DNMT1 was added to a solution of 682 nM AdoMet and 1 μg poly(dIdC) in DNMT assay buffer to a concentration of 258 nM in 300 μL total volume which had been equilibrated to 22° C. or 37° C. A control reaction containing no DNMT1 was also performed at 37° C. 15 μL aliquots of the reaction were quenched with 5 μL of 100 mM HCl at 2 min intervals from 2 to 10 min in triplicate. These were neutralized with 5 μL of 100 mM KOH and were mixed with 25 μL of 2×AdoHcy to ATP conversion buffer and incubated at room temperature for several minutes. 20 μL of each mixture were then mixed with 80 μL of ATPlite in a 96-well non-binding surface microplate. These mixtures were incubated at room temperature for several minutes and their luminescence was measured in the single measurement mode of the luminometer. […]
Initial reaction rates for human DNMT1 were measured both at room temperature and at 37° C. […] After incubation at room temperature for ˜3 min, the luminescence of each sample was measured and an initial rate plot was constructed (FIG. 5A). Initial rates measured in RLU/s were converted to units of pmol/h with an AdoHcy standard curve constructed under the same assay conditions (Table 2). […] The discontinuous rates were readily measured even at low AdoMet concentrations, and the assay is suitable for automated screening. […]

| Substance | activity of catalytic domain alone (initial reaction rates) (AdoMet and poly(dIdC) [1]) | Initial rate ([2]; 22° C.) | Initial rate ([2]; 37° C.) | Initial rate (AdoMet and poly(dIdC) [3]; 22° C. (room temperature)) | Initial rate (AdoMet and poly(dIdC) [3]; 37° C.) | Initial rate (AdoMet and poly(dIdC) [1]; continuous assay, 258 nM DNMT1, 682 nM AdoMet, 1 μg poly(dIdC) per 50 μL) | Vmax (AdoMet and poly(dIdC) [1]; room temperature) | kcat (AdoMet and poly(dIdC) [1]; room temperature) | Km (AdoMet and poly(dIdC) [1]; room temperature, 1 μg poly(dIdC), value as printed in the text, read-out: Km for AdoMet) | Km (AdoMet and poly(dIdC) [1]; room temperature, near saturating AdoMet: 35 μM for DNMT1, 10 μM for CD-DNMT3a/3b complexes with DNMT3L, read-out: Km DNA (poly(dIdC))) | Km (AdoMet and poly(dIdC) [1]; room temperature, near saturating poly(dIdC), dIdC base pair concentration 16.4 μM, read-out: Km AdoMet) |
| --- | --- | --- | --- | --- | --- | --- | --- | --- | --- | --- | --- |
| CD-DNMT3a: 286 amino acid C-terminal catalytic domain of human DNMT3a (residues 627-912), His6 tagged | low activity |  |  |  |  |  |  |  |  |  |  |
| CD-DNMT3b: 286 amino acid C-terminal catalytic domain of human DNMT3b (residues 568-853), His6 tagged | low activity |  |  |  |  |  |  |  |  |  |  |
| DNMT1: full-length human DNA (cytosine 5)-methyltransferase 1, N-terminal His6 tag, expressed in SF9 cells |  | 11.6 pmol/h | 13.0 pmol/h | 6.3 pmol/h and 6.26 pmol/h | 7.5 pmol/h and 7.52 pmol/h | 30 pmol/h and 30.1 pmol/h | 726 ± 75 pmol/h | 0.00778 ± 0.00083 s⁻¹ and 0.00781 s⁻¹ | 2.7 ± 0.7 µM | 0.84 µM and 0.837 µM | 2.66 ± 0.75 µM |
